Assay results reported in publication doi:10.1101/2021.08.19.456998 (2021).
Where no end group is shown, it is not given here. The star is where a group is joined. Biotin = O=C1N[C@H]2[C@H](CS[C@H]2CCCCC(=O)*)N1

How the values were obtained:
[1] = molecular target: T1, cleaved OSR1 (human OSR1 CCT domain, residues 423-527, tags removed with TEV protease) (human); test: waveRAPID, 1:1 model
[2] = molecular target: T1, cleaved OSR1 (human OSR1 CCT domain, …); test: multicycle kinetics, 1:1 model
[3] = molecular target: T2, cleaved SPAK (human SPAK CCT domain, residues 441-545, tags removed with TEV protease) (human); test: waveRAPID, heterogeneous ligand model, site 1
[4] = molecular target: T2, cleaved SPAK (human SPAK CCT domain, …); test: waveRAPID, heterogeneous ligand model, second site
[5] = molecular target: T2, cleaved SPAK (human SPAK CCT domain, …); test: waveRAPID, heterogeneous ligand model, second site; remark: listed apart in the source
[6] = molecular target: T3, biotin-SPAK (uncleaved human SPAK CCT domain, residues 441-545, biotinylated on the AviTag) (human, biotin on the lysine of the AviTag (…)); test: waveRAPID
[7] = molecular target: T4, biotin-OSR (uncleaved human OSR1 CCT domain, residues 423-527, biotinylated on the AviTag) (human, biotin on the lysine of the AviTag (…)); test: waveRAPID
[8] = molecular target: T3, biotin-SPAK (uncleaved human SPAK CCT …); test: multicycle kinetics
[9] = molecular target: T4, biotin-OSR (uncleaved human OSR1 CCT …); test: multicycle kinetics

T4 sequence (chain, as listed by the source): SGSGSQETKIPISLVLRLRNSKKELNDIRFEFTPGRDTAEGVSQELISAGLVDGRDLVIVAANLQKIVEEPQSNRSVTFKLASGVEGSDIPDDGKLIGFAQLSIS
T1 sequence (chain, as listed by the source): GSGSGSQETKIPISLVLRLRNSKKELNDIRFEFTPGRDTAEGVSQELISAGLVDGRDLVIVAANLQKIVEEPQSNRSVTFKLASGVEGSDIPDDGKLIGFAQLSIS

koff [1] | koff [2] | koff [3] | koff [4] | Kd [5] | koff [6] | koff [7] | koff [8] | koff [9] | Binder
0.662 s⁻¹ | 1.13 s⁻¹ | 0.584 s⁻¹ | 6.98e-05 s⁻¹ | 4.25 nM |  |  |  |  | {Biotin-C6}-SEEGKPQLVGRFQVTSSK [Biotin-C6-SEEGKPQLVGRFQVTSSK (N-terminally biotinylated 18-mer RFQV peptide derived from WNK4)]
 |  |  |  |  | 0.614 s⁻¹ | 0.56 s⁻¹ | 0.327 s⁻¹ | 0.68 s⁻¹ | SEEGKPQLVGRFQVTSSK [18-mer RFQV peptide derived from WNK4 (SEEGKPQLVGRFQVTSSK), unbiotinylated]
